Reference: patent US20180111991A1, “MODULATORS OF ACTIVIN AND METHODS FOR MODULATING IMMUNE RESPONSES AND T FOLLICULAR HELPER CELLS” (LA JOLLA INSTITUTE FOR ALLERGY AND IMMUNOLOGY, priority 2014, published 2018)

Tests used:
SMAD2/3 [1] = test: Analysis of phosphorylated SMAD2/3 in blood naïve CD4 T cells; format: cell-based, human; conditions: activin A + SB 431542 (10 μM)
Description: (§1) Fresh PBMCs and tonsil mononuclear cells were serum-starved over night in AIM-V medium. […] Following stimulation, the cells were fixed in BD Phosflow™ Fix Buffer I (BD Biosciences), then permeabilized using BD Phosflow™ Perm Buffer III (BD Biosciences) following manufacture's instruction.

SMAD2/3 [2] = test: Analysis of phosphorylated SMAD2/3 in tonsil CD4 T cells; format: cell-based, human; conditions: tonsil naïve CD4 T cells, activin A+Galunisertib
Description: as §1

ALK4 = molecular target: T1, ALK4 (Homo sapiens, UniProt P36896); test: SMAD2/3 inhibition experiments (ALK4 inhibitors) in Tfh differentiation; format: cell-based; conditions: activin A+IL-12, 5 days, vs vehicle (DMSO)
T1 construct: endogenous in cells; host or cells: primary human naive CD4+ T cells from PBMCs
T1 sequence (P36896 24-505): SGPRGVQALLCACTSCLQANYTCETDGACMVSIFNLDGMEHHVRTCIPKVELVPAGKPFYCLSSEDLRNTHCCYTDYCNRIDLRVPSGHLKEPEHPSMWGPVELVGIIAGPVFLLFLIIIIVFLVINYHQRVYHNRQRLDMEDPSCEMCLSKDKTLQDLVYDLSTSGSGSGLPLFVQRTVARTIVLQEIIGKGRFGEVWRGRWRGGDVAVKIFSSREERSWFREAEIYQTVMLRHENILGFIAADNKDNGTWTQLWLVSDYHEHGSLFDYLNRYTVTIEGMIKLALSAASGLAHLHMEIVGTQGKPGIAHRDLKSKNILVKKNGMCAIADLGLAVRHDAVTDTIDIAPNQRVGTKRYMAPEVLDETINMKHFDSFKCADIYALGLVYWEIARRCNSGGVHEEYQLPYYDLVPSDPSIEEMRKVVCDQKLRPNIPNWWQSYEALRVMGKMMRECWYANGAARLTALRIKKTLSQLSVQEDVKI

human naïve CD4 T cells [3] = test: In vitro Tfh differentiation, PD-1 and CXCR5 expression by FACS; format: cell-based; conditions: for synergy with activin A on CXCR5 and PD-1 expression: IL-12 family cytokine added to activin A, serum-free conditions
Method: (§2) For surface staining, primary-staining panels used for phenotypic analysis or for cell sorting known in the art were used. For the intranuclear staining: cells were treated with the FoxP3 Fixation/Permeabilization kit (eBioscience) and stained in Permeabilization buffer (eBioscience). For cytokine staining: day 3 or day 5 in vitro differentiated cells (specified in the main text or in figure legends) cells were stimulated for 5 hours at 37° C. with Phorbol 12-myristate 13-acetate (PMA, 25 ng/ml) and Ionomycin (1 μg/ml) in the presence of Brefeldin A (5 μg/ml). Cells were fixed with PBS 2% FBS, 1% PFA and permeabilized with PBS 2% FBS, 0.5% Saponin (from quillaja bark, Sigma-Aldrich). Samples were analyzed on a LSR Fortessa Cell Analyzer (BD, Bioscience). Flow cytometry data were analyzed with FlowJo (Tree Star). For cell sorting, cells were sorted using sorted using a FACS Aria (BD, Bioscience).
Unless differently specified, naïve CD4^+ T cells were enriched from PBMCs by magnetic bead negative selection with the Naïve CD4^+ T Cell Isolation Kit (Stem Cell Technologies). Purity (CD4^+CD45RA^+) was 90% or higher. Cells (7.5×10^4 cells/well) were activated by Dynabeads Human T-Activator CD3/CD28 (2 μl/well, Life Technologies) and cultured with recombinant human/mouse/rat activin A (50 ng/ml or 100 ng/ml), recombinant human IL-12 (5 ng/ml), recombinant human TGFβ (1 ng/ml), recombinant human IL-23 (10 ng/ml) or recombinant human IL-35 (10 ng/ml) in the presence of and recombinant human IL-7 (4 ng/ml) in AIM-V medium (Life Technologies). All cytokines were from R&D System and Peprotech. The 14 kDa mature human beta A chain of human activin A shares 100% amino acid sequence identity with bovine, feline, mouse, porcine, and rat beta A. Phenotype was quantified after 3 or 5 days, as specified in the main text of Figure legends. Similar results were obtained when using Treg-depleted FACS sorted naïve CD4 T cells, in which cells were sorted from total PBMCs by flow cytometry as CD19^−CD8^−CD14^−CD16^− CD4^+CD45RO^−CD25^− cells. For experiments quantifying supernatant CXCL13 concentration, cells were activated by plate-bound anti-human CD3 (5 μg/ml, BD) and ICOS-L (5 μg/ml, recombinant human B7-H2, R&D). CXCL13 concentrations were determined via human CXCL13 DuoSet ELISA (R&D) on supernatants harvested after 5 days of in vitro culture. For blocking experiments, cells were cultured with anti-activin A blocking mAb (5 μg/ml, clone 69403, R&D), anti-TGFβ mAb (100 μg/ml, clone 1D11.16.8, BioXcell), or equivalent concentration of mouse IgG1 isotype mAb (BioXcell). For blockade of IL-2, cells were cultured with anti-IL-2 blocking mAb (10 μg/ml, clone 5334, R&D) or mouse IgG1 isotype mAb (BioXcell).

human naïve CD4 T cells [4] = test: Intracellular cytokine staining after PMA/Ionomycin restimulation; format: cell-based; conditions: cells cultured with IL-12, PMA/Ionomycin re-stimulation
Method: as §2

[5] = test system: autologous memory B cells; test: T-B co-culture, B cell help; format: cell-based, human; conditions: T-B co-cultures
human naïve CD4 T cells [6] = test: Screening of secretomics recombinant proteins for Tfh marker induction; format: cell-based; conditions: secretomics protein screen, anti-CD3/CD28 beads, 5 days, automated FACS
Method: FIG. 1A-D: Inhibin beta A (INHBA) emerged from the screen as potent regulator of human Tfh differentiation. (A) Schematic of primary screen. Purified human naïve CD4 T cells from a leukapheresis donor were stimulated by anti-CD3/CD28 beads on 384 well plates on day 0. The GNF secretomics recombinant proteins were added at the beginning of the stimulation. Each secretomics protein was tested in duplicate. After 5 days of in vitro culture, cells were evaluated by automated FACS analysis for the expression of Tfh signature markers, including CXCR5 and PD-1. (B) Primary screen results. Relative enrichment of PD-1^+CXCR5^+ cell induction is reported as Z score for each recombinant protein. INHBA gene product is shown in red. (C) CXCR5 and PD-1 expression from repeat experiment in which INHBA gene product was tested again for its capacity to induce Tfh-like differentiation. (D) Confocal microscopy of INHBA expression in human tonsils. Tonsil sections were stained with anti-INHBA (red) anti-BCL6 (blue) and anti-CD3 (green) Abs. An overlay from one donor representative of six is shown on the left panel. […]
Naïve CD4^+ T cells were isolated from leukapheresis-derived mononuclear cells via CliniMACS negative selection (Miltenyi Biotec). […] Induction of CXCR5 and PD-1 was assessed after 5 days of in vitro culture using automated FACS acquisition via HTS on LSR Fortessa (BD Biosciences). For each 384 well plate, mean and standard deviation of PD-1^+CXCR5^+ cell frequency induced by each individual recombinant proteins was determined and used to calculate the Z score. Z scores of replicate plates were analyzed independently.
To discover novel regulators of human Tfh cell differentiation, we performed an unbiased high throughput screen of a human extracellular proteome library consisting of over 2000 human proteins predicted or known to be cytokines, chemokines, morphogens, costimulatory receptors, or single pass transmembrane molecules^19. […] Following 5 days, expression of the Tfh signature markers CXCR5 and PD-1 were measured on the cells by flow cytometry, in an automated fashion. […]

Molecule: NC(=O)c1ccc(-c2nc(-c3ccc4c(c3)OCO4)c(-c3ccccn3)[nH]2)cc1 [SB 431542, reference compound]
- reduction of activin A-mediated SMAD2/3 phosphorylation (SMAD2/3 [1]): strong reduction

Molecule: Cc1cccc(-c2nn3c(c2-c2ccnc4ccc(C(N)=O)cc24)CCC3)n1 [Galunisertib, reference compound]
- inhibition of activin A-induced SMAD2/3 phosphorylation (SMAD2/3 [2]): abolished
- suppression of PD-1+CXCR5+ cell generation in response to activin A (ALK4): potent suppression

B1: IL-12: recombinant human cytokine (protein, UniProt P29459 23-219; P29460 23-328, looked up)
Interleukin-12 subunit alpha: RNLPVATPDPGMFPCLHHSQNLLRAVSNMLQKARQTLEFYPCTSEEIDHEDITKDKTSTVEACLPLELTKNESCLNSRETSFITNGSCLASRKTSFMMALCLSSIYEDLKMYQVEFKTMNAKLLMDPKRQIFLDQNMLAVIDELMQALNFNSETVPQKSSLEEPDFYKTKIKLCILLHAFRIRAVTIDRVMSYLNAS
Interleukin-12 subunit beta: IWELKKDVYVVELDWYPDAPGEMVVLTCDTPEEDGITWTLDQSSEVLGSGKTLTIQVKEFGDAGQYTCHKGGEVLSHSLLLLHKKEDGIWSTDILKDQKEPKNKTFLRCEAKNYSGRFTCWWLTTISTDLTFSVKSSRGSSDPQGVTCGAATLSAERVRGDNKEYEYSVECQEDSACPAAEESLPIEVMVDAVHKLKYENYTSSFFIRDIIKPDPPKNLQLKPLKNSRQVEVSWEYPDTWSTPHSYFSLTFCVQVQGKSKREKKDRVFTDKTSATVICRKNASISVRAQDRYYSSSWSEWASVPCS
- synergy with activin A on CXCR5 and PD-1 expression (human naïve CD4 T cells [3]): enhanced
- IL-21 production (human naïve CD4 T cells [4]): capable of producing IL-21
- contribution to B cell helper activity of in vitro differentiated Tfh cells [5]: driven entirely by IL-12

B2: IL-23: recombinant human cytokine of the IL-12 cytokine family (protein, UniProt Q9NPF7 20-189; P29460 23-328, looked up)
Interleukin-23 subunit alpha: RAVPGGSSPAWTQCQQLSQKLCTLAWSAHPLVGHMDLREEGDEETTNDVPHIQCGDGCDPQGLRDNSQFCLQRIHQGLIFYEKLLGSDIFTGEPSLLPDSPVGQLHASLLGLSQLLQPEGHHWETQQIPSLSPSQPWQRLLLRFKILRSLQAFVAVAARVFAHGAATLSP
Interleukin-12 subunit beta: B1 Interleukin-12 subunit beta
- synergy with TGFβ or activin A, induction of CXCR5+ or CXCR5+PD1+ cells (human naïve CD4 T cells [3]; FIG. 15, interleukin combined with TGFβ or activin A): synergizes with TGFβ or activin A but less potently than IL-12
- synergy with activin A on CXCR5 and PD-1 expression (human naïve CD4 T cells [3]): modest but detectable synergistic activity with activin A

B3: product of the Inhibin beta A gene (INHBA): secreted recombinant protein from the secretomics collection; forms the cytokine activin A as a homodimer (protein, UniProt P08476 311-426, looked up)
Inhibin beta A chain: GLECDGKVNICCKKQFFVSFKDIGWNDWIIAPSGYHANYCEGECPSHIAGTSGSSLSFHSTVINHYRMRGHSPFANLKSCCVPTKLRPMSMLYYDDGQNIIKKDIQNMIVEECGCS
modifications: Inhibin beta A chain
- induction of CXCR5 and PD-1 expression (PD-1+CXCR5+ cells) (human naïve CD4 T cells [6]): most potent inducer of CXCR5 and PD-1
